# Source: patent publication US20190153066A1 (IMMATICS BIOTECHNOLOGIES, published 2019)
# No end group written: not given here.
# Target: T1, HLA-A*02:01 (peptide-receptive MHC class I molecule after UV-ligand exchange) (human)
# T1 construct: monomers captured on streptavidin-coated plates; also called peptide-receptive MHC molecules; MHC monomers
# Experiment: UV-ligand exchange, anti-b2m ELISA; peptide exchange yield grade (>10% = +; >20% = ++; >50 = +++; >75% = ++++)
# Excerpt: Candidate peptides for T cell based therapies according to the present invention were further tested for their MHC binding capacity (affinity). The individual peptide-MHC complexes were produced by UV-ligand exchange, where a UV-sensitive peptide is cleaved upon UV-irradiation, and exchanged with the peptide of interest as analyzed. Only peptide candidates that can effectively bind and stabilize the peptide-receptive MHC molecules prevent dissociation of the MHC complexes. To determine the yield of the exchange reaction, an ELISA was performed based on the detection of the light chain (β2m) of stabilized MHC complexes. The assay was performed as generally described in Rodenko et al. (Rodenko et al., 2006).
# 96 well MAXISorp plates (NUNC) were coated over night with 2 ug/ml streptavidin in PBS at room temperature, washed 4× and blocked for1 h at 37° C. in 2% BSA containing blocking buffer. Refolded HLA-A*02:01/MLA-001 monomers served as standards, covering the range of 15-500 ng/ml. Peptide-MHC monomers of the UV-exchange reaction were diluted 100-fold in blocking buffer. Samples were incubated for 1 h at 37° C., washed four times, incubated with 2 ug/ml HRP conjugated anti-β2 m for 1 h at 37° C., washed again and detected with TMB solution that is stopped with […]. Absorption was measured at 450 nm. Candidate peptides that show a high exchange yield (preferably higher than 50%, most preferred higher than 75%) are generally preferred for a generation and production of antibodies or fragments thereof, and/or T cell receptors or fragments thereof, as they show sufficient avidity to the MHC molecules and prevent dissociation of the MHC complexes.
row,Binder,peptide exchange yield [%]
1,FASEVSNVL [peptide FASEVSNVL (SEQ ID NO: 29)],> 75
2,LLLSDPDKVTI [peptide LLLSDPDKVTI (SEQ ID NO: 7)],> 75
3,IAIPFLIKL [peptide IAIPFLIKL (SEQ ID NO: 31)],> 75
4,LLLPLLPPLSPS (also: trifluoroacetate salt) [peptide LLLPLLPPLSPS (SEQ ID NO: 6)],> 75
5,ISAPLVKTL [peptide ISAPLVKTL (SEQ ID NO: 24)],10 to 20
6,GLIDEVMVLL [peptide GLIDEVMVLL (SEQ ID NO: 5)],> 75
7,FASGLIHRV [peptide FASGLIHRV (SEQ ID NO: 30)],50 to 75
8,AVMTDLPVI [peptide AVMTDLPVI (SEQ ID NO: 16)],> 75
9,IAFPTSISV [peptide IAFPTSISV (SEQ ID NO: 21)],50 to 75
10,LSASLVRIL [peptide LSASLVRIL (SEQ ID NO: 8)],10 to 20
11,FLLEAQNYL [peptide FLLEAQNYL (SEQ ID NO: 4)],> 75
12,AAYPEIVAV [peptide AAYPEIVAV (SEQ ID NO: 2)],50 to 75
13,EMDSTVITV [peptide EMDSTVITV (SEQ ID NO: 3)],50 to 75
14,ALAEQVQKA [peptide ALAEQVQKA (SEQ ID NO: 27)],50 to 75

# The remaining lines, values ahead:
row,peptide exchange yield [%],Binder
1,20 to 50,SAFPFPVTVSL [peptide SAFPFPVTVSL (SEQ ID NO: 10)]
2,> 75,VLPRAFTYV [peptide VLPRAFTYV (SEQ ID NO: 13)]
3,10 to 20,TAQTLVRIL [peptide TAQTLVRIL (SEQ ID NO: 26)]
4,10 to 20,YASGSSASL [peptide YASGSSASL (SEQ ID NO: 28)]
5,> 75,VLQDELPQL [peptide VLQDELPQL (SEQ ID NO: 20)]
6,> 75,SIIDFTVTM [peptide SIIDFTVTM (SEQ ID NO: 11)]
7,> 75,VLYDNTQLQL [peptide VLYDNTQLQL (SEQ ID NO: 17)]
8,20 to 50,TAYPQVVVV [peptide TAYPQVVVV (SEQ ID NO: 19)]
9,> 75,SLLSELLGV [peptide SLLSELLGV (SEQ ID NO: 23)]
10,20 to 50,SAFGFPVIL [peptide SAFGFPVIL (SEQ ID NO: 22)]
11,10 to 20,TILPGNLQSW [peptide TILPGNLQSW (SEQ ID NO: 12)]
12,> 75,SVIDSLPEI [peptide SVIDSLPEI (SEQ ID NO: 15)]
13,> 75,YGIEFVVGV [peptide YGIEFVVGV (SEQ ID NO: 14)]
14,> 75,YVISQVFEI [peptide YVISQVFEI (SEQ ID NO: 32)]
15,> 75,NLSETASTMAL [peptide NLSETASTMAL (SEQ ID NO: 25)]
16,> 75,RLAKLTAAV [peptide RLAKLTAAV (SEQ ID NO: 9)]
17,50 to 75,SLSPDLSQV [peptide SLSPDLSQV (SEQ ID NO: 18)]
18,50 to 75,YAAEIASAL (also: trifluoroacetate salt) [peptide YAAEIASAL (SEQ ID NO: 1)]
